According to the Immune Epitope Database (IEDB):

Assays:
HLA-A*30:01 = assay: IEDB peptide-MHC binding, purified MHC/competitive/radioactivity; filed as Kd, often an IC50 or EC50 that approximates it; ≥ and ≤ were set here for values at or beyond the usual limits of such assays
HLA-A*02:01 [1] = assay: IEDB peptide-MHC binding, purified MHC/competitive/fluorescence; filed as Kd, often an IC50 or EC50 that approximates it; ≥ and ≤ were set here for values at or beyond the usual limits of such assays
HLA-B*15:01 = assay: IEDB peptide-MHC binding, purified MHC/competitive/radioactivity; filed as Kd, often an IC50 or EC50 that approximates it; ≥ and ≤ were set here for values at or beyond the usual limits of such assays
HLA-A*02:06 = assay: as above; conditions: source organism: Dengue virus 1 Brazil/97-11/1997
HLA-A*24:02 = assay: IEDB peptide-MHC binding, purified MHC/competitive/fluorescence; ≥ and ≤ were set here for values at or beyond the usual limits of such assays
HLA-A*26:01 = assay: IEDB peptide-MHC binding, purified MHC/competitive/radioactivity; filed as Kd, often an IC50 or EC50 that approximates it; ≥ and ≤ were set here for values at or beyond the usual limits of such assays
HLA-A*32:01 = assay: as above
HLA-A*01:01 = assay: as above
HLA-A*30:02 = assay: as above
HLA-A*29:02 = assay: as above
HLA-B*08:01 = assay: as above
HLA-B*40:01 = assay: as above; conditions: source organism: Dengue virus 1 Brazil/97-11/1997
HLA-B*44:02 = assay: as above; conditions: source organism: Dengue virus 1 Brazil/97-11/1997
HLA-A*31:01 = assay: IEDB peptide-MHC binding, purified MHC/direct/fluorescence; filed as Kd, often an IC50 or EC50 that approximates it; ≥ and ≤ were set here for values at or beyond the usual limits of such assays; conditions: source organism: SARS-CoV1
HLA-A*33:01 = assay: IEDB peptide-MHC binding, purified MHC/competitive/radioactivity; filed as Kd, often an IC50 or EC50 that approximates it; ≥ and ≤ were set here for values at or beyond the usual limits of such assays; conditions: source organism: SARS coronavirus Tor2
HLA-A*68:01 = assay: as above; conditions: source organism: SARS coronavirus Tor2
HLA-A*02:01 [2] = assay: IEDB peptide-MHC binding, purified MHC/competitive/fluorescence; ≥ and ≤ were set here for values at or beyond the usual limits of such assays; conditions: source organism: Vaccinia virus WR
[3] = source organism: Vaccinia virus WR
[4] = source organism: Dengue virus 2 Jamaica/1409/1983
[5] = source organism: Dengue virus 1 Brazil/97-11/1997
[6] = source organism: Dengue virus 3 Martinique/1243/1999
[7] = source organism: Mammarenavirus guanaritoense
[8] = source organism: Mammarenavirus whitewaterense

Sequence: TTKNGQPRK
- Kd (HLA-A*30:01; [3]): 0.233 nM

Sequence: LRVLSIPPTA
- Kd (HLA-A*30:01; source organism: Dengue virus 4 Philippines/H241/1956): 3500 nM

Sequence: VLSPTIGHV
- Kd (HLA-A*02:01 [1]; [3]): 4 nM

Sequence: KAYHIIFFV
- Kd (HLA-A*30:01; [3]): 405 nM

Sequence: VMVMVGATM
- Kd (HLA-B*15:01; [4]): 2.77 nM

Sequence: AQMWQLMYF
- Kd (HLA-A*02:06): 9.54 nM
- Kd (HLA-B*15:01; [5]): 1.58 nM

Sequence: LMALKLITQF
- Kd (HLA-B*15:01; [6]): 149 nM

Sequence: EDDRERLKV
- IC50 (HLA-A*24:02; source organism: Variola virus): 16.8 nM

Sequence: SLKDVLVSV
- Kd (HLA-A*02:01 [1]; source organism: Horsepox virus): 3.6 nM

Sequence: AQNALDNLVM
- Kd (HLA-B*15:01; [5]): 2.02 nM

Sequence: ELLSYCVSLF
- Kd (HLA-A*26:01; [7]): 99.3 nM
- Kd (HLA-A*32:01; [7]): 2640 nM
- Kd (HLA-A*30:01; [7]): 1060 nM
- Kd (HLA-A*01:01; [7]): 261 nM
- Kd (HLA-A*30:02; [7]): 9750 nM
- Kd (HLA-A*29:02; [7]): 5800 nM

Sequence: SLREISNIV
- Kd (HLA-B*08:01; [3]): 10.2 nM

Sequence: AEALKGMPI
- Kd (HLA-B*40:01): 122 nM
- Kd (HLA-B*44:02): 1.01 nM

Sequence: RLRGEARKTF
- Kd (HLA-B*15:01; [4]): 49.3 nM

Sequence: RPTIEKDVDL
- Kd (HLA-B*08:01; [6]): 846 nM

Sequence: YVNHTGFNV
- Kd (HLA-A*26:01; [8]): ≥ 53600 nM
- Kd (HLA-A*32:01; [8]): ≥ 77800 nM
- Kd (HLA-A*30:01; [8]): 1240 nM
- Kd (HLA-A*01:01; [8]): 5880 nM
- Kd (HLA-A*30:02; [8]): ≥ 76900 nM
- Kd (HLA-A*29:02; [8]): 2470 nM

Sequence: DRDINPIVK
- IC50 (HLA-A*24:02; source organism: Vaccinia virus): 33500 nM

Sequence: MVLPGAANK
- Kd (HLA-A*30:01; [3]): 58.9 nM

Sequence: MVRLTTQGL
- Kd (HLA-A*30:01; source organism: Vaccinia virus Copenhagen): 8.32 nM

Sequence: EPIKHKYPL
- Kd (HLA-B*08:01; [3]): 1.27 nM

Sequence: ALRANSAVK
- Kd (HLA-A*31:01): 479 nM
- Kd (HLA-A*33:01): ≥ 77700 nM
- Kd (HLA-A*68:01): ≥ 26400 nM

Sequence: ASNIVLDQI
- IC50 (HLA-A*24:02; [3]): 5240 nM
- IC50 (HLA-A*02:01 [2]): ≥ 86200 nM
